Laboratory results as given in publication PMC6019658 (Protein & Cell, 2017).

Target: the molecule itself
Test: cryo-EM structure; single-particle cryo-EM of purified YnaI in amphipols; 20 mmol/L Mes pH 6.5, 200 mmol/L NaCl, 5 mmol/L DTT; 0.1 mg/mL on grids; homoheptamer

B1: YnaI channel (MscS-like mechanosensitive channel of E. coli) (natural protein, UniProt P0AEB5 1-343, looked up)
chain: MIAELFTNNALNLVIIFGSCAALILMSFWFRRGNRKRKGFLFHAVQFLIYTIIISAVGSIINYVIENYKLKFITPGVIDFICTSLIAVILTIKLFLLINQFEKQQIKKGRDITSARIMSRIIKITIIVVLVLLYGEHFGMSLSGLLTFGGIGGLAVGMAGKDILSNFFSGIMLYFDRPFSIGDWIRSPDRNIEGTVAEIGWRITKITTFDNRPLYVPNSLFSSISVENPGRMTNRRITTTIGLRYEDAAKVGVIVEAVREMLKNHPAIDQRQTLLVYFNQFADSSLNIMVYCFTKTTVWAEWLAAQQDVYLKIIDIVQSHGADFAFPSQTLYMDNITPPEQGR
For B1, the “stoichiometry N” value was 7.
